Measured values reported in the DeepSol protein solubility set.

Test: soluble on expression in E. coli; label from the status in PepcDB or PDB records

Row | Sequence | soluble on expression in E. coli
1 | MGSDKIHHHHHHMKSFRNIMGDSQNLDKRIQKIKQNVINDTDVKHFLEKNRSNITNEMIDEDLNVLQEYKDQQKVYDGHRYDDCPNFVKGHVPELYIENERIKIRYLPCPCKIKHDEERFDSQLITSHHMQRDTLHAKLKDIYMNNRERLDVAMAADQICTAITNDEKVKGLYLYGPFGTGKSFILGAIANQLKSQKISSTIVYLPEFIRTLKGGFKDGSFEKKLQRVREANILMLDDIGAEEVTPWVRDEVIGPLLHYRMVHELPTFFSSNFNYSELEHHLSITRDGTEKTKAARIIERIKTLSTPYYLTGKNFRNN | not soluble
2 | MGSDKIHHHHHHMEFSQLRIFQAVAEEGSVTRAAERLHRVPSNLSTRLRQLEEQLGVELFLRERQRLQLSPAGKVLLDYANRMSALRDEALGAVRGGQPAGDFVLGTMYSTAATHLPALLARYHQSYPQVNLQVRAAPSGELLEGLLNHTLDAALVDGPPSLAGLDGVPLCDEQLVLITSPEHPAVLTAKDVAGKAVFTFRQGCSYRMRLEAWYAHAHTPMGRVMEIESYQSMLACVIAGAGVAMMAQSMLDSLPGRDRVRVHSLQAPFDQAVTWLMWRQGMRGANLQAWIDLQQSETINQSSECAATA | not soluble
3 | MASAEVVSKLEAAFAKLQNASDCHSLLKKYLTKEVFDQLKGKQTKMGATLMDVIQSGVENLDSGIGVYAPDAESYTLFAALLDPIIEDYHKGFKPSDKQPPKDSGDLNTFIDVDPDKKYVISTRVRCGRSLEGYPFNPCLKKQQYEEMESRVKGQLESMSGELRGKYYPLTGMTKETQKQLIDDHFLFKEGDRFLQAAHACKFWPTGRGIYHNDAKTFLVWVNEEDHLRIISMQKGGNLKEVFGRLVTAVGVIEEKVKFSRDDRLGFLTFCPTNLGTTIRASVHIKLPKLGADRKKLEEVAAKYNLQVRGTAGEHSDSPDGVYDISNKRRLGLSEYEAVKEMQDGILELIKAEESAR | soluble
4 | GPGSMSAAGVTVRRAEREDTQRMYDLIMELAIYERAPECVVVSKAQMEEEGFGERPLWSAFVAELQETNDVKPRVIGMALYYYRYSTWRGRMLYLEDFIVTESHRGIGAGKMLFERVLQQAKEEGCHGMVWQALDWNAPAIEFYKKYDAEIDPGWVNCMLKF | soluble
5 | MNQCKVMNDGYLEKRSNGLLQLWKKKRCVLSDEGLRLYGCKGDSGKEMRFEQMTTLDCVEYKRGLVYFTIVMNDGKEVDFRCQQEGTAWNAEIALALVRFKNRVAVQTGRNRHLSHLGSCGEGDVEL | not soluble
6 | GPGSMDDRSLKLAEDFVSARYIDAGRESLRSTARILRSILAQRCCPDEGLTDAAIELILRQLSLMDTNNFARHVGGGEREGRVVSALVRMRHFHLTHGVGRSGDLFSEQPKAAGSSLLYKITNVLMLDLIRQAGAPSTAAAVVVPMA | not soluble
7 | MGSDKIHHHHHHMIEKPNAICLKNRKIIKVTGEEATHFLQALITTDVKKIGLQEIFPGALLSPQGKVLADFLIGKREDGYFIDIFSSLSDLLYKRLLLYKMRTKVEIMQPLQEFVTVSWENETDSLNFYSSFIDKRFPAKEKIIRIYGETPFLASECHDNWNRLRIRYAIPESDKDYEIGKVFPHDINYDQINGLAFNKGCYIGQEVVSRMHHRRAARRRILLVKSQHELIPGANIVAGTKILGSLGTCAANEALALMRIDHIKDAMDHNTPFTVKDVPVTISIAENMNFTFPESTV | not soluble
8 | MEIDGGPPPFCGVAVDDSYDKSEQHEYDEVDDSPDSTSLPLPSASRSRSVTPVKDMAAGHEAVPEASDNNEKGDTMTTALSQDEFTGFQNSEIQKEEDDDDDEWGDFGEAVVAAAPIQARPQSPPPSLKMDGFNNEDDDDDDDWGAFDQARPSTDRTESSPNSSRSQEARHQQSLDEWGAFENSNDLKANGDEWQAEFSSASDVPPPPSDTVLENLELLDEMLENVEFWHDGFQEECREEEESPEMDVVDIPALFDSENLVEMVNSFEVERQRDSRLWLSLRLVEEAISLKFDWNNSEIRKNHLKSLKINPVTAKKEPRAMNSFFDTSNLLLPTPIQATTTSSSTESSHDSSATATNPKTSSSSPPSSVIDSPSVPAVDFDWDTSGLTNPMNRASKHLHELSKKCRNLVCSVSTNCINLLKCC | not soluble
9 | MIRKLDKAEFQQATTLALEVYLQCGQDDFEDEGLESFKSFIFNDKLMNELCIYGAFEENKLIGIMGTKNEGKHISLFFIKKEFHRKGIGKQLFDYSQCDCPANEITVNSSTYAIRFYESLGFEKTNDRQQTNGISYTPMKLISNKLEHHHHHH | soluble
10 | MGSDKIHHHHHHMTELLARNADCIVWLARYMERAENLARILGVAETFARDRAGRNWLAVVQINADEERFFARHRVADARTVPHFYILDPDNPNSILSSIKAARENARTLRPMISIEMWRQINRMNTWMGGLSDNAVAPANLAALCEEIKEACQLHVGITEGTFYRDQAHYFYHLGKSIERADQTTRLLDIKYHTLLPRPEDVGSALDISHWNALLKAVAGYQASRRVLAGKITPRSVAAFLLFSDSFPRSVILCVRQMDWLMTQLRTRYHLRGGVKALELLDGLRAALTDHDIDHVIDHGLHEFIDWVQSQLMAIFAEIQDSFCVTRQPSQSQSQ | not soluble
11 | MRALVVGAGIGGLVAARALRRAGLEVLVLEAHTYPGGLAGTFTHRGYRFDAGATLLSGFAPGGPMALVAEALGVCLPVEPFPEGFPLMEVHLPRGPLLRPVGREAEREAQRDFFGPRVLPFWRWQEERAKALLRLAPRLPWPPEREELLRLLALLPELFPLLPDLFLKAAHRAPQDPHFLRFLDAQLLIASQAEAKRTYALYAALALDLPHMGPALVPGGVGRVAEALAEGLPVRYKARAERLLLGEGRALAVEVAYGGRRRGEREVVEADLFVLDVPLAPLLGLPLKVPEDAWGAFVVHGVLPFRAPPPYFRQNAREKPFAFLSLRPEGEKTAFALSLHTPLALWEGLSPEEYGRLKARWGEMALSLGEALLPGLREAELLLFGTPRTYARFAGRAWVGGFPQTHPFRFPRVRPFPNVFRVGEGVFPGQSVPAAALSGLRAARLALEALGLAGSGGEARPSFPPFPLEHHHHHH | not soluble
12 | MYFPIVALIGRYQDTGLDAPLTALAQMLTQAGRRVLVEAETARNAGVSGYPVADWDEIGRTATLAVVMGGDGTVLGAARHLAPYGVPLIGINHGRLGFITDIPLQDAHDALGRVLEGNYQAEDRMLLQGGVWRGEQQMYSASAVNDVVLNRAGRGGMIEVRVELDGAFMYTQRADGLIIATPTGSTAYSLSANGPILHPGMNAMVLVPVAPQTLSNRPIVIPDSGVLNMTLTAMGRVEIGASVHFDMQTWSDLQPGDRITVQRAPHIIRFVHPEGYSFFSTLRRKLHWNLMPQATDNLELEHHHHHH | not soluble
13 | MKEHHIPKNSIITVAGTVGVGKSTLTKTLAKRLGFKTSLEEVDHNPYLEKFYHDFERWSFHLQIYFLAERFKEQKTIFEAGGGFVQDRSIYEDTGIFAKMHADKGTMSKVDYKTYTSLFEAMVMTPYFPHPDVLIYLEGDLENILNRIEQRGREMELQTSRSYWEEMHTRYENWISGFNACPVLKLRIEDYDLLNDENSIENIVDQIASVIHDNQKKLEHHHHHH | not soluble
14 | MRNKNMSTIYQTSATASAGRNGVVSTEDKLLELNLSYPKEMGGSGTATNPEQLFAVGYAACFSNAILHVAREAKVALKEAPVTATVGIGPNGQGGFALSVALAAHIALEDEQARQLVTVAHQVCPYSNAVRGNIDVQVSVNGLAL | not soluble
15 | MNGEVMDELIQKLERVSQTSFIGSGKLMELSELVEMHEADVVIFNSELSATQVRNISKIVDARIIDLEHHHHHH | not soluble
16 | MGSDKIHHHHHHMTKDDQKELGKTLWAIADQLRGSMNADDFRDYMLSFLFLRYLSDNYEAAAKKELGSDYPDAKTIGNSDKTPLSVWYASNPGDVAAFEQQMRRKAHYVIKPKYLWGNIVNLAKKQNHDLLDTLQQGFKHIEEDSFESEFQGLFSEINLASDKLGRKYDDRNAKLCSIISEIARGMALSAKTDSLGDAYEYLIGQFAAGSGKKAGEFYTPQEISNILSAIVTLDSQEPKTGPRGKLDSVFDFACGSGSLLLNIRNRMTNSGGSIGKIYGQEYNVTTYNLARMNMLLHGVKDTEFEIYHGDTLKNDWDWLRETNPAKKPRFDAVVANPPFSYRWEPGEAMAQDARFKNHGVAPKSAADFAFLLHGLQYLKDDGVMAIILPHGVLFRGGKEADIRRKLLDDGHIDTVIGLPANLFYSTGIPVCILVLKKCKKPDDVLFINAAGHFAKGKRQNQLTDEHIQRIVNTYQNRNKQDRYSRCVSMKEIADKDYNLNISRYVSTAEADKEIVLEAVHADLTAIESRLEESKKRHNAFLVELGLKPLP | not soluble
17 | MAITQKRPVYLQLVDRIKNEVATDVLSANDQLPSVRETALQEKINPNTVAKAYKELEAQKVIRTIPGKGTFITGNTASVKNSNQNRLLADLSQVIAELIKSGVKGERIKKIVNDILGGKNAEN | soluble
18 | MDTMGRHVISELWGCDFDKLNDIDFIEKTFVDAALKSGAEIREVAFHKFAPQGVSGVVIISESHLTIHTFPEHGYASIDVYTCGHLDPTIAADYIAEMLGAQTRETIELPRGMRPIEVKKAQAL | soluble
19 | MSSLAKLGYFFDEKGVLKTEKDKKPFKFTTQEDYEELGEAVDLEVYELLETRCGLKRKALKLPGKTDEDEDLSFIFVSKNFKKAANLLVLIHGSGVVRAGQWARRLIINDNLECGTQIPYIERAIENGWGVVVMNTNLNESKDQDLKYSRTPVEHAETVWIACIEPSNAKSIYVVAHSRGGYDTASVLKKFGGDDRISKICLTDSPWFEFPKSCAQRARPLFVVNFLAHGALNSPSYKVREYREGNVAELWAGTQIHEWSSHCAIDAVFHILETEMTPSNYAEVMEEAKKLVVKSENSKESDDEAPKSKKICV | not soluble
20 | MLHEIPKEEILEKLKNIGAKKVLIQSPEGLRREAEELAEFLEKNEIEVILHGEINYGACDPADHEARLLGCDALIHLGHSFMMLSLEVPTIFVPAFAKVNVVEALKKNLHEIKKLGKKIIVTTTAQHIHQLERAIEYLKSQGFEPVVGRGDNRVSWPSQVLGCNFSVAKVEGDGILFIGSGTFHPLGLALATGKRVLAVNPYSGDCQWINELAERFIRKRWAQIAKAMDAKRFGVVISTKRGQLRLNEAKRIIKLLKDHGREAKLIAMNDISYSKLEGFSFDAYVIVACPRVPIDDYENWRKPVLTPREVEILLGLREEYIFDEIPGGVREKDEPLGISLHSTRLEHHHHHH | not soluble
21 | MSLNLRESFISKFAASFVKPRFEIWFAAVLIPENDQAFWVRYSTLNPRNNRDLFPMGTLWVSLFDRKNPKNHRTTTQSFPYEEVLIKEHAIEFPEASVGPDHMSGKIQTSMSEDLAWDLEFRHKLEPTGHLPRWLEKTPINHIWGTNRVSELFWTFVPKFDDDPDDWSMEIVTVRPQPFTPTLTFVTLLKRGIPIHQHSIFRSLRSSTKIEYPKLHFKTRLDDYEISVESEMDKDQIAGYIYRDPDGSPRYIEQSDIGNVKCVIRHRRKETVLNAKQAAGVEFHGLRPWRKDHEYLDPYQTEGHHHHHH | not soluble
22 | MNIVNKDSKNTFTRMCIGEAIIKLLKDTDFDKIRITSVAKCAGVSRITFYKYYESIHDALCDYLNIIIIEYLEECANNPENGSFLDYSHILFALEFFNRYKDYFLTLSRCGLHSILINSINNFMSEHFTNPKNYSEYRLYCYSGGLLNTFLKWEENGCDCDAGEIARTLEELYS | not soluble
